Reference: IntAct's records for PubMed 17853893

B1: Programmed cell death 6-interacting protein (Homo sapiens), Q8WUM4 (parent)
chain: MATFISVQLKKTSEVDLAKPLVKFIQQTYPSGGEEQAQYCRAAEELSKLRRAAVGRPLDKHEGALETLLRYYDQICSIEPKFPFSENQICLTFTWKDAFDKGSLFGGSVKLALASLGYEKSCVLFNCAALASQIAAEQNLDNDEGLKIAAKHYQFASGAFLHIKETVLSALSREPTVDISPDTVGTLSLIMLAQAQEVFFLKATRDKMKDAIIAKLANQAADYFGDAFKQCQYKDTLPKEVFPVLAAKHCIMQANAEYHQSILAKQQKKFGEEIARLQHAAELIKTVASRYDEYVNVKDFSDKINRALAAAKKDNDFIYHDRVPDLKDLDPIGKATLVKSTPVNVPISQKFTDLFEKMVPVSVQQSLAAYNQRKADLVNRSIAQMREATTLANGVLASLNLPAAIEDVSGDTVPQSILTKSRSVIEQGGIQTVDQLIKELPELLQRNREILDESLRLLDEEEATDNDLRAKFKERWQRTPSNELYKPLRAEGTNFRTVLDKAVQADGQVKECYQSHRDTIVLLCKPEPELNAAIPSANPAKTMQGSEVVNVLKSLLSNLDEVKKEREGLENDLKSVNFDMTSKFLTALAQDGVINEEALSVTELDRVYGGLTTKVQESLKKQEGLLKNIQVSHQEFSKMKQSNNEANLREEVLKNLATAYDNFVELVANLKEGTKFYNELTEILVRFQNKCSDIVFARKTERDELLKDLQQSIAREPSAPSIPTPAYQSSPAGGHAPTPPTPAPRTMPPTKPQPPARPPPPVLPANRAPSATAPSPVGAGTAAPAPSQTPGSAPPPQAQGPPYPTYPGYPGYCQMPMPMGYNPYAYGQYNMPYPPVYHQSPGQAPYPGPQQPSYPFPQPPQQSYYPQQ
partner: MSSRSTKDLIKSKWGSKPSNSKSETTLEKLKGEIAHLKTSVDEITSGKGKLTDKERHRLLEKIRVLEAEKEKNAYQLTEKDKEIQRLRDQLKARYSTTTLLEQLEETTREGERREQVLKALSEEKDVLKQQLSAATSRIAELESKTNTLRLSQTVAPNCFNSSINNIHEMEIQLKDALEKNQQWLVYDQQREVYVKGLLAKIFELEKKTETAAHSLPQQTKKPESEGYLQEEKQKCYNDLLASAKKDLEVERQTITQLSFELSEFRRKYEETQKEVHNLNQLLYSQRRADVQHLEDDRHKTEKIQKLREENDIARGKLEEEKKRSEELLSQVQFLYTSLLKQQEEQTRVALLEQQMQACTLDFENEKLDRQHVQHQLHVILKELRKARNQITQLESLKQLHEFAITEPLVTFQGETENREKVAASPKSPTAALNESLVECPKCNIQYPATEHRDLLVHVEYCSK

Variants of: B1
Details: with cep55_human CEP55, Q53EZ4

| Variant | effect of a mutation on the interaction |
| --- | --- |
| G800A;P801A;P802A | disrupting interaction strength |
